Test results from patent US20220089784A1 (University of California, published 2022).
Where two headings read alike, the source gives them in different places.

Assays:
[1] = target: T1, BoNT/F1 (proteolytic BoNT/F) (Clostridium botulinum, UniProt A7GBG3 1-1278); test: yeast scFv FACS
T1 sequence: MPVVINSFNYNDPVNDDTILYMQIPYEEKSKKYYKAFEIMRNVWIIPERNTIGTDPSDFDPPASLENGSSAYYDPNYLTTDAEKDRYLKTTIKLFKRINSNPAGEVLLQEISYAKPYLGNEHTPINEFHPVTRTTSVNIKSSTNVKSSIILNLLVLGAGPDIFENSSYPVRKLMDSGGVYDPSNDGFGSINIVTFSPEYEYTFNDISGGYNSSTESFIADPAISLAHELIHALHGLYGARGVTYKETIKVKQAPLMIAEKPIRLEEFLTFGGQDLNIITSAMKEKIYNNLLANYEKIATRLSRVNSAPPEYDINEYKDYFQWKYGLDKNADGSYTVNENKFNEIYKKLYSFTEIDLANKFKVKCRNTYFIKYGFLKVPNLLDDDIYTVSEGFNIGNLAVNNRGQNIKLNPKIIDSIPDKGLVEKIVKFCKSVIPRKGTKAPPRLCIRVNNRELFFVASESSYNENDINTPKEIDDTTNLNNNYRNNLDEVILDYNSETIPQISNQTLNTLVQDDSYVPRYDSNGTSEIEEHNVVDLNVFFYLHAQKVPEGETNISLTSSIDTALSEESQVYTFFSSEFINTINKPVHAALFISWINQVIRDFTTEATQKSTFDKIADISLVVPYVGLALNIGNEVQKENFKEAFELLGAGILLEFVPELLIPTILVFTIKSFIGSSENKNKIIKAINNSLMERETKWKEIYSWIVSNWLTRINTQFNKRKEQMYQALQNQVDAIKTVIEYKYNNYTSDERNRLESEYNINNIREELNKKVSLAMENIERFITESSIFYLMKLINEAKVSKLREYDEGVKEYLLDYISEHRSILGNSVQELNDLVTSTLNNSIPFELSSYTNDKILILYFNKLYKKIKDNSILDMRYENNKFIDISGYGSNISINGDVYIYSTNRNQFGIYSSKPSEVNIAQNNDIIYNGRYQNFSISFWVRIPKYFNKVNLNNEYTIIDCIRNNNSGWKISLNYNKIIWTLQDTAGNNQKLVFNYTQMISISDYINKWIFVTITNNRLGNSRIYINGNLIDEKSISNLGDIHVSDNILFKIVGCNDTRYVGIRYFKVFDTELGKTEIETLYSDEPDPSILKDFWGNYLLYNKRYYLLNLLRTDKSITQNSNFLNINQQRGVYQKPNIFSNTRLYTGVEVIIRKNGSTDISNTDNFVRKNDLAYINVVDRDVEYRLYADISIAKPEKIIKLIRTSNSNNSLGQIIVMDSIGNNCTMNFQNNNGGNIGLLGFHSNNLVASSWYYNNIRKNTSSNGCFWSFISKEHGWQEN

BoNT/F 202F = target: T2, BoNT/F 202F (Clostridium botulinum, UniProt P30996 1-1274); test: yeast scFv FACS
T2 sequence: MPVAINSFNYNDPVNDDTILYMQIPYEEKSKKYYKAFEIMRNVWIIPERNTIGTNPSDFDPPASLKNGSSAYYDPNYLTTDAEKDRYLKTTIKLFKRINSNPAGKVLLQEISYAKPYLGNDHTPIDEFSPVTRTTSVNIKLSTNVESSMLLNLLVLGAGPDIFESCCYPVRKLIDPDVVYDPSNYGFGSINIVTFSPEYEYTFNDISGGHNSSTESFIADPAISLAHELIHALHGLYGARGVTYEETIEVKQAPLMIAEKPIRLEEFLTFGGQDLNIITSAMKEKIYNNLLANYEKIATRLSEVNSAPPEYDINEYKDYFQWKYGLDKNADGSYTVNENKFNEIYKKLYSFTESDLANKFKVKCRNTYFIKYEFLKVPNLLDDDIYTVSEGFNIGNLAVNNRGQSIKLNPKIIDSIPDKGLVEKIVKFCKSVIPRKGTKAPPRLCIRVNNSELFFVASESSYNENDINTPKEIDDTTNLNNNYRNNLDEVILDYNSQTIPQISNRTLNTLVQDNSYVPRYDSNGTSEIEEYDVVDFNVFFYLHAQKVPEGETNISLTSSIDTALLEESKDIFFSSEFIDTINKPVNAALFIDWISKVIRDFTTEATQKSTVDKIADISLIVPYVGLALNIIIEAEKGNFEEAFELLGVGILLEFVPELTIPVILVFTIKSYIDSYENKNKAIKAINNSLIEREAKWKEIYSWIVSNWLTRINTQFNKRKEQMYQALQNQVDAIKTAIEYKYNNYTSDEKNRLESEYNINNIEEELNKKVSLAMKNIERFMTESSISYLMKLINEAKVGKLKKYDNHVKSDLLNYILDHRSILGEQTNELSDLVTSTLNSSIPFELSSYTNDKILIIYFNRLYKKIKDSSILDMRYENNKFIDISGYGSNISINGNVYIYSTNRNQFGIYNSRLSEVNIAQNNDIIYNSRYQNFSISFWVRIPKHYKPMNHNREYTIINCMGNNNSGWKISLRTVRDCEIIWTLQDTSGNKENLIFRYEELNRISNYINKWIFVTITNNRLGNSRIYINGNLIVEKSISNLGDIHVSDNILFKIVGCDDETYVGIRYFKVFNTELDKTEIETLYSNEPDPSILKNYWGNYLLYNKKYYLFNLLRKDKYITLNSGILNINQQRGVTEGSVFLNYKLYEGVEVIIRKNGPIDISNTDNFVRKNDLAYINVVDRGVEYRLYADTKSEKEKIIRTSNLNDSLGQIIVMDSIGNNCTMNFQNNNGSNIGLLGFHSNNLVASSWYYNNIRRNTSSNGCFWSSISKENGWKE

[2] = target: T1, BoNT/F1 (proteolytic BoNT/F); test: yeast scFv FACS; remark: listed apart in the source
BoNT/F6 = target: T3, BoNT/F6 (Clostridium botulinum, UniProt P30996 1-1274); test: yeast scFv FACS
T3 sequence: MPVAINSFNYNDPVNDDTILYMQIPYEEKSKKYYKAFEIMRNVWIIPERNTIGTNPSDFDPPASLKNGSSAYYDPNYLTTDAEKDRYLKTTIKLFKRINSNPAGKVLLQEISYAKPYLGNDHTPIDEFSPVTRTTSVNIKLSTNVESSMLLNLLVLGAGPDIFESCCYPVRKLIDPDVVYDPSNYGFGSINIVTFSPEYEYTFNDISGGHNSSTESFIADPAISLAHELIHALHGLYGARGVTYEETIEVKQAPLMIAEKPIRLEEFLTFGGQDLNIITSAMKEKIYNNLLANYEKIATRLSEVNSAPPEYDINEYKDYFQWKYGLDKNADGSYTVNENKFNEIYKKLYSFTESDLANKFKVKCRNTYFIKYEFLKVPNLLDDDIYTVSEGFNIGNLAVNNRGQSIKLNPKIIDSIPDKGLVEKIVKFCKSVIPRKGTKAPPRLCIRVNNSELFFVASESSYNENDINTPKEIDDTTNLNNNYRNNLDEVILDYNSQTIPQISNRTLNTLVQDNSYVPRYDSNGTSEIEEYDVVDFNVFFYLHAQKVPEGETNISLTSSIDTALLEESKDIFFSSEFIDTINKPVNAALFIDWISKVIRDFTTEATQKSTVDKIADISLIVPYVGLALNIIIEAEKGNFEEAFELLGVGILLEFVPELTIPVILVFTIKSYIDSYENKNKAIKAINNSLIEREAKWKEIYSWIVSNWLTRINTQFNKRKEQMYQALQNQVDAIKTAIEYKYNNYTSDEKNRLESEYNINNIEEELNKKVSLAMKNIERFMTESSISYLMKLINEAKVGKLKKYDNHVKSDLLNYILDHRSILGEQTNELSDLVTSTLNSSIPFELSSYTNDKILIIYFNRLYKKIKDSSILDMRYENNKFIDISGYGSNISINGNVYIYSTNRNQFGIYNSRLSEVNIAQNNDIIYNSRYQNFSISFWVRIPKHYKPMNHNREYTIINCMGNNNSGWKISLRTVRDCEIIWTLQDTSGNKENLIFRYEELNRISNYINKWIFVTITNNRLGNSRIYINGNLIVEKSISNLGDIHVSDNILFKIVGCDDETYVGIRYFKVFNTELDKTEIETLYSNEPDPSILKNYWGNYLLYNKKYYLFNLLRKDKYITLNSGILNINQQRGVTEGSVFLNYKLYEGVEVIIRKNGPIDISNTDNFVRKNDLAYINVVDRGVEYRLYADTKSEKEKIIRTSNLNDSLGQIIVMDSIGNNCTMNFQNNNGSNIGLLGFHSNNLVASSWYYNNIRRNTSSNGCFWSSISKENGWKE

[3] = target: T1, BoNT/F1 (proteolytic BoNT/F)
[4] = target: T4, BoNT/A1 holotoxin (Hall hyper) (Clostridium botulinum, UniProt P0DPI0 2-1296); test: KinExA, IgG
[5] = target: T5, BoNT/A2 holotoxin (FRI-H1A2) (Clostridium botulinum, UniProt Q45894 2-1296); test: KinExA, IgG
T5 sequence (Q45894 2-1296): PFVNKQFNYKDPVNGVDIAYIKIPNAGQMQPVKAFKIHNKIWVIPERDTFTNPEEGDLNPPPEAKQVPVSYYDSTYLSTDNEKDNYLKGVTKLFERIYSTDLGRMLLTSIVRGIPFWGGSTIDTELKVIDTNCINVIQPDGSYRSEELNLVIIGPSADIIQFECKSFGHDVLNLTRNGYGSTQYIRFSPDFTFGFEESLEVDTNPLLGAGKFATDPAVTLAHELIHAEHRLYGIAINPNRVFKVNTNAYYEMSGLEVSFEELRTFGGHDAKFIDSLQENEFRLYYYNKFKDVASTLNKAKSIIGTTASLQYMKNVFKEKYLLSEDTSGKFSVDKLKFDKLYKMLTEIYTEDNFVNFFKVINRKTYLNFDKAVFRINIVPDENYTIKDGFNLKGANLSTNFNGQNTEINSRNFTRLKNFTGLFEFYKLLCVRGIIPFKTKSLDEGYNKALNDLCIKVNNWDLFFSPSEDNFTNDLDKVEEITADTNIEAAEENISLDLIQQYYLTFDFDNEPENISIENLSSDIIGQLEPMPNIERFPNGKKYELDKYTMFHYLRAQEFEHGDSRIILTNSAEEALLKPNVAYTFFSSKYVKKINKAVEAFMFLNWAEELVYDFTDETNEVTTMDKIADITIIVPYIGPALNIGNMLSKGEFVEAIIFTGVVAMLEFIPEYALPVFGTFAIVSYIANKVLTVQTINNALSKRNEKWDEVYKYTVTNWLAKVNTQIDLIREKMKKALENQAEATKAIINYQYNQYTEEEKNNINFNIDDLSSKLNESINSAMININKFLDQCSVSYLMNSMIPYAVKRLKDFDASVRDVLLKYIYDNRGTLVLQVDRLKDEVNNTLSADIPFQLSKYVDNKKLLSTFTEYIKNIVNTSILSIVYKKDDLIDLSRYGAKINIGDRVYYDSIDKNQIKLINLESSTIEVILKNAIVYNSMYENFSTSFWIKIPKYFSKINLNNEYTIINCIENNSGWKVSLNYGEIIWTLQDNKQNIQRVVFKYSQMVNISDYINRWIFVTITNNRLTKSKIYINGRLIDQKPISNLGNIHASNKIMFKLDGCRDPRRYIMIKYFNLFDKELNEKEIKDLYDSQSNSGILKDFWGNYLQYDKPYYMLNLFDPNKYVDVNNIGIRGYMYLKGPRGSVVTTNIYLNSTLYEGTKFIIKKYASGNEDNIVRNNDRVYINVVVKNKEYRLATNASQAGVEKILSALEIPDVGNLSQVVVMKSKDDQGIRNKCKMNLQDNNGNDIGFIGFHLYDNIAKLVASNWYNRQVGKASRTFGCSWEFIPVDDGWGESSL

[6] = target: BoNT/A light chain (recombinant) (Clostridium botulinum, UniProt P0DPI0 1-448); test: KinExA, IgG
[7] = target: T4, BoNT/A1 holotoxin (Hall hyper)
[8] = target: T5, BoNT/A2 holotoxin (FRI-H1A2)

B1: 28H2 scFv (scFv, V domains shown)
VH: QVQLQESGPGLVKPSQTVSLTCTVAGYSITNGNHWWNWIRQVSGSKLEWIGYITSSGSTDSNPSLKSRISITRDTSKNQLFLQLNSVTTEDIATYYCARSSNYFFHVLDYWGQGTSVTVSS
VL: DIVLTQTPAIMSASPGEKVTMTCSASSSVSYMHWFQQKPGTSPKLWIYSTSNLASGVPARFSGSGSGTSYSLTISRMEAEDAATYYCQQRSSYPPTFGGGTRLEIK
Question: For B1, which Kd [1] is on record?
Answer: Its Kd is 1.55 nM.

Question: Does B1 bind (BoNT/F 202F)?
Answer: Result: no binding

Question: And the Kd [2]?
Answer: Its Kd is 1.55 nM.

Question: Does B1 bind (BoNT/F6)?
Answer: Result: no binding (tested: maximum toxin concentration tested)

B2: 4E17.2 scFv (scFv, V domains shown)
VH: EVQLVQSGGNLVQPGGSLRLSCAATGPIGSHWMTWVRQAPGQGLEWVANINLDGTEKFYVDSVKGRFTVSRDNRKSSVFLQMNNLRVDDTAVYYCARLQWGGYNGWLSPWGQGTLVTVSS
VL: DIEMTQSPPSLSASVGDRVSLTCRASEYIGTSLNWYQQKPGKAPKLLIYAASALHSGVPSRFSGSGSGTDFTLTISGLQPEDFATYYCQQANDLPLTFGGGTKLEIK
Question: Which Kd [3] does the source give for B2 here?
Answer: Its Kd is less than 1 nM.

Question: And the Kd [1]?
Answer: Its Kd is 0.39 nM.

Question: Does B2 bind (BoNT/F 202F)?
Answer: Result: binds

Question: What about the Kd [2] of the same binder?
Answer: Its Kd is 0.39 nM.

B3: 6A1M IgG (antibody, V domains shown)
VH: LQLKQSGPGLVKPSQSLSLTCSVTGYSITSGYYWYWIRQFPGNKLEWMGYISYDGSNNYNPSLKNRISITRDTSKNQFFLKLNSVTTEDTATYYCARNLGLWYFDVWGTGTPLTVSS
VL: EIVLTQSPAILSASPGEKVTMTCRASSSVRYMHWYQQKPGSSPKPWIYATSNLASGVPARFSGSGSGTSYSLTISRVEAEDAATYYCQQWSGNAPTFGGGTKLEIK
notes: IgG converted from scFv
Question: How did the Kd [4] turn out when B3 was run?
Answer: The Kd was 0.00921 nM.

Question: What about the Kd [5] of the same binder?
Answer: Its Kd is 0.00289 nM.

Question: And the Kd [6]?
Answer: The Kd was 1.38 nM.

B4: ING2 IgG (antibody, V domains shown)
VH: QVQLVQSGAEVKKPGSSVKVSCKASGDTFNRNAIAWVRQAPGQGLEWMGRIIPNLRTTHYAQKFQGRVAITADKHTNTVFMELSSLRSEDTAVYYCARDPYYYSYMDVWGKGTTVTVSS
VL: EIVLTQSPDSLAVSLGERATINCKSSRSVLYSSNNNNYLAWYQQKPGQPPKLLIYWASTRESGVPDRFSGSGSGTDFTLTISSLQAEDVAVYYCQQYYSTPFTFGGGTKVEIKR
Question: With B4 as the binder, how does the Kd [4] read?
Answer: Its Kd is 0.00957 nM.

Question: What about the Kd [5] of the same binder?
Answer: Its Kd is 0.00742 nM.

Question: What about the Kd [6] of the same binder?
Answer: The Kd was 85.7 nM.

B5: A9 (antibody, V domains shown)
VH: QVQLVQSGGGVVQPGRSLRLSCAASGFTFSSYGMHWVRQAPGKGLEWVSSISSSSSYIYYADSVKGRFTISRDNSKNTLYLQMNSLRAEDTAVYYCARGAVAGGSYGMDVWGQGTMVTVSS
VL: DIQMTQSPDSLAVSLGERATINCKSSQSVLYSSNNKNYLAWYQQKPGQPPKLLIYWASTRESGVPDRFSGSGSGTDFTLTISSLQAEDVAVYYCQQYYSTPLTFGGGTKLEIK
Question: B5 was tested. Which Kd [7] did it give?
Answer: The Kd was 0.0771 nM.

Question: What about the Kd [8] of the same binder?
Answer: Its Kd is 0.223 nM.

B6: 4E17.1 (antibody, V domains shown)
VH: EVQLVRSGGNLVQPGGSLRLSCAATGPIGSHWMTWVRQAPGQGLEWVANINLDGTEKFYVDSVKGRFTVSRDNRKSSVFLQMNNLRVDDTAVYYCARLQWGGYNGWLSPWGQGTLVTVSS
VL: DIVMTQSPSSLSASVGDRVTISCRASQSIRHYVNWYQQKPGKAPKLLIYKASSLASGAPSRFSGSGSGTDFTLTISSLQPDDFATYYCQQSYSIPLTFGGGTKVEIKR
Question: With B6 as the binder, how does the Kd [7] read?
Answer: Its Kd is 0.00183 nM.

Question: What about the Kd [8] of the same binder?
Answer: Its Kd is 0.00798 nM.
